This data set is described as follows: SEC; HiLoad 16/60 Superdex 75 pg; protein purified by Ni2+-NTA injected at 0.5 mM.

This is an account of results in article PMC3519878.

For mClavGR2, the “area of the peak at 63 min (elutes as a dimer would), percent of monomer peak area” value is 6.7% vs. 25.8% of monomer peak area. As to mMaple, the “area of the peak at 63 min (elutes as a dimer would), percent of monomer peak area” value is given as 6.7% vs. 25.8% of monomer peak area.
